# Assays:
# [1] = biological target: [1-^14 C]14:0-ACP (myristoyl-acyl carrier protein made with Escherichia coli ACP) (Escherichia coli) (UniProt P0A6A8)
# [2] = biological target: [1-^14 C]16:0-ACP (palmitoyl-acyl carrier protein made with Escherichia coli ACP) (Escherichia coli) (UniProt P0A6A8)
substance,measurement,setting,value
"100,000×g supernatant of a T. alata endosperm homogenate (soluble Δ^6 16:0-ACP desaturase activity) (pool or library)","Δ^6 monounsaturated product, specific activity (pmol/min/mg protein)",[1],13
same,"Δ^6 monounsaturated product, specific activity (pmol/min/mg protein)",[2],99

# From patent US5614400
